The text below walks through data of publication PMC12785156.

The term Kd denotes the equilibrium constant for the complex coming apart. A higher Kd goes with weaker binding.

For the test, the target named is T1, hydroxylated His-AtHPPD (under oxidative stress, H2O2) (Arabidopsis thaliana), P93836.
T1 chain: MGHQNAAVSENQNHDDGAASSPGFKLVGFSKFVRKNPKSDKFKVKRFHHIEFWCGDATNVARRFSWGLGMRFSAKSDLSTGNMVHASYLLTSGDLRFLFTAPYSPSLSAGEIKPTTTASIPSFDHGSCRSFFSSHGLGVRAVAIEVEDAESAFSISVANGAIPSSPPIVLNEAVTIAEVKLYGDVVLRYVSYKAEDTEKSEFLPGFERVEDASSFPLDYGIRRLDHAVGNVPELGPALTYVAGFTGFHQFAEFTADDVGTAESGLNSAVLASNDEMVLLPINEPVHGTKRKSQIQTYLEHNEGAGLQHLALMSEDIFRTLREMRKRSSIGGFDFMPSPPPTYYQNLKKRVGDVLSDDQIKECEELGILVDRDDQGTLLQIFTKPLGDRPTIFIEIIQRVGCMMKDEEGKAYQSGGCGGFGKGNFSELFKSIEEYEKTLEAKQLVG
The test is described as follows: MST; as the MST of untreated His-AtHPPD, but AtHPPD under oxidative stress (H2O2, concentration not stated); GST-PUB11-ARM serially diluted; 25°C; 20 mM HEPES pH 8.0, 100 mM NaCl.

B1: GST-PUB11-ARM (domain or fragment)
chain: QPAGYINGRTKNSGDMSVIRALVQRLSSRSTEDRRNAVSEIRSLSKRSTDNRILIAEAGAIPVLVNLLTSEDVATQENAITCVLNLSIYENNKELIMFAGAVTSIVQVLRAGTMEARENAAATLFSLSLADENKIIIGGSGAIPALVDLLENGTPRGKKDAATALFNLCIYHGNKGRAVRAGIVTALVKMLSDSTRHRMVDEALTILSVLANNQDAKSAIVKANTLPALIGILQTDQTRNRENAAAILLSLCKRDTEKLITIGRLGAVVPLMDLSKNGTERGKRKAISLLELLRKACQ
modifications: not checked
As for B1, the Kd turned out to be 2930 nM.
